This passage reports ECL signal results from patent US20120058906A1 (published 2012).

The target in experiment [1] is T1, rHuman IGF-1 sR (insulin-like growth factor-1 soluble receptor), CF (R&D Systems Cat#391-GR) (human, UniProt P08069 31-932).
T1 construct: Bought soluble receptor; also called IGF-R1
Nature of the experiment: ECL (MSD multi-spot), antigen on plate, Fab 2 nM.

Experiment [2] deals with T2, rHuman P-Cadherin/Fc Chimera, CF (R&D Systems Cat#861-PC) (human, UniProt P22223 108-654).
T2 construct: Bought Fc chimera; also called CDH3; not shown: Fc of the bought chimera
Nature of the experiment: ECL (MSD multi-spot), antigen on plate, Fab 2 nM.

In experiment [3] the target is T3, Recombinant Human DLL4 (R&D Systems Cat#1506-D4/CF) (human, UniProt Q9NR61 27-524).
T3 construct: Bought recombinant protein; also called delta-like protein 4
Briefly: ECL (MSD multi-spot), antigen on plate, Fab 2 nM.

Experiment [4] addresses T4, rHuman ErbB2/Fc Chimera, CF (R&D Systems Cat#1129-ER) (human, UniProt P04626 23-652).
T4 construct: Bought Fc chimera; also called HER2/neu; not shown: Fc of the bought chimera
Briefly: ECL (MSD multi-spot), antigen on plate, Fab 2 nM.

In experiment [5] the target is T5, rHuman EGF R/Fc Chimera, CF (R&D Systems Cat#344-ER) (human, UniProt P00533 25-645).
T5 construct: Bought Fc chimera; also called ErbB-1; not shown: Fc of the bought chimera
Nature of the experiment: ECL (MSD multi-spot), antigen on plate, Fab 2 nM.

Experiment [6] deals with T6, rHuman Notch-1/Fc Chimera, CF (R&D Systems Cat#3647-TK) (human, UniProt P46531 19-526).
T6 construct: Bought Fc chimera; not shown: Fc of the bought chimera
Briefly: ECL (MSD multi-spot), antigen on plate, Fab 2 nM.

Experiment [7] addresses T7, rHuman CD44/Fc Chimera, CF (R&D Systems Cat#3660-CD) (human, UniProt P16070 21-220).
T7 construct: Bought Fc chimera; not shown: Fc of the bought chimera
Nature of the experiment: ECL (MSD multi-spot), antigen on plate, Fab 2 nM.

Experiment [8] has as its target T8, rHuman IGF-1 sR (IGF-1 sR), CF (R&D Systems Cat#391-GR) (human, UniProt P08069 31-932).
T8 construct: Purchased soluble receptor; also called insulin-like growth factor-1 soluble receptor; IGF-R1
Nature of the experiment: MSD ECL multi-spot plate, antigen immobilized; Fab 1000 nM; blank spot 630.

The target of experiment [9] is T9, rHuman P-Cadherin/Fc Chimera, CF (R&D Systems Cat#861-PC) (human, UniProt P22223 108-654).
T9 construct: Purchased Fc chimera; not shown: Fc portion of the purchased chimera
The description is as above.

Experiment [10] addresses T10, rHuman Erythropoietin R/Fc Chimera, CF (R&D Systems Cat#963-ER) (human, UniProt P19235 25-250).
T10 construct: Purchased Fc chimera; also called EPO R/Fc; Epo R; not shown: Fc portion of the purchased chimera
T10 sequence: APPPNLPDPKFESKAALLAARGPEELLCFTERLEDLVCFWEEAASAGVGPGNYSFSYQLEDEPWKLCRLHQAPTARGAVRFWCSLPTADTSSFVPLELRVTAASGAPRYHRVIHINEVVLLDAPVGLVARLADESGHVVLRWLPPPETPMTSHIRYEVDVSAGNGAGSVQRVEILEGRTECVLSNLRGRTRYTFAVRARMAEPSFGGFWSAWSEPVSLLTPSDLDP
The experiment is described as above.

Experiment [11] has as its target T11, Recombinant Human DLL4 (R&D Systems Cat#1506-D4/CF) (human, UniProt Q9NR61 27-524).
T11 construct: Purchased recombinant protein; also called delta-like protein 4
The experiment is described as above.

Experiment [12] has as its target T12, rHuman ErbB2/Fc Chimera, CF (R&D Systems Cat#1129-ER) (human, UniProt P04626 23-652).
T12 construct: Purchased Fc chimera; also called HER2/neu; not shown: Fc portion of the purchased chimera
The description is as above.

Experiment [13] deals with T13, rHuman EGF R/Fc Chimera, CF (R&D Systems Cat#344-ER) (human, UniProt P00533 25-645).
T13 construct: Purchased Fc chimera; not shown: Fc portion of the purchased chimera
Described as above.

Experiment [14] addresses T14, rHuman HGF R/c-MET/Fc Chimera, CF (R&D Systems Cat#358-MT/CF) (human, UniProt P08581 25-932).
T14 construct: Purchased Fc chimera; also called HGF R/Fc; not shown: Fc portion of the purchased chimera
The experiment is described as above.

The target of experiment [15] is T15, rHuman Notch-1/Fc Chimera, CF (R&D Systems Cat#3647-TK) (human, UniProt P46531 19-526).
T15 construct: Purchased Fc chimera; not shown: Fc portion of the purchased chimera
The description is as above.

The target of experiment [16] is T16, rHuman CD44/Fc Chimera, CF (R&D Systems Cat#3660-CD) (human, UniProt P16070 21-220).
T16 construct: Purchased Fc chimera; not shown: Fc portion of the purchased chimera
Described as above.

Experiment [17] has as its target T17, rHuman Notch-1/Fc Chimera, CF (R&D Systems Cat#3647-TK) (human, UniProt P46531 19-526).
T17 construct: Bought Fc chimera; Fc part of the bought chimera not given
Nature of the experiment: ECL (MSD Multi-Spot) binding assay, antigen spotted on plate; Fab 15 nM; blank spot 261.

The target in experiment [18] is T18, rHuman CD44/Fc Chimera, CF (R&D Systems Cat#3660-CD) (human, UniProt P16070 21-220).
T18 construct: Bought Fc chimera; Fc part of the bought chimera not given
Described as above.

Experiment [19] addresses T19, rHuman P-Cadherin/Fc Chimera, CF (R&D Systems Cat#861-PC) (human, UniProt P22223 108-654).
T19 construct: Bought Fc chimera; also called CDH3; Fc part of the bought chimera not given
The experiment is described as above.
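Note: blank spot per well as comparator with Hit at signal to blank ratio of 4 or more.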

B1: Fab VH1-46_IGHD6-6*01_IGHJ1*01_S102A_S103P_S104F & L6_IGKJ1*01_S28P (Fab, V domains shown)
VH: QVQLVQSGAEVKKPGASVKVSCKASGYTFTSYYMHWVRQAPGQGLEWMGIINPSGGSTSYAQKFQGRVTMTRDTSTSTVYMELSSLRSEDTAVYYCAREEYAPFSAEYFQHWGQGTLVTVSS
VL: EIVLTQSPATLSLSPGERATLSCRASQPVSSYLAWYQQKPGQAPRLLIYDASNRATGIPARFSGSGSGTDFTLTISSLEPEDFAVYYCQQRSNWPPWTFGQGTKVEIKR
notes: Fab
Regarding B1, the ECL signal in experiment [1] amounted to 205 ECL signal; in experiment [2] it was 223 ECL signal; in experiment [3] it was 6100 ECL signal; in experiment [4], 176 ECL signal; in experiment [5] it was 352 ECL signal; in experiment [6], 307 ECL signal. In experiment [7], this molecule showed an ECL signal of 266 ECL signal.

B2: Fab VH5-51_IGHD5-18*01>3_IGHJ4*01_G100K & V3-4_IGLJ1*01 (Fab, V domains shown)
VH: EVQLVQSGAEVKKPGESLKISCKGSGYSFTSYWIGWVRQMPGKGLEWMGIIYPGDSDTRYSPSFQGQVTISADKSISTAYLQWSSLKASDTAMYYCARRKYSYGYDYFDYWGQGTLVTVSS
VL: QTVVTQEPSFSVSPGGTVTLTCGLSSGSVSTSYYPSWYQQTPGQAPRTLIYSTNTRSSGVPDRFSGSILGNKAALTITGAQADDESDYYCVLYMGSGISYVFGTGTKVTVL
notes: It was expressed as a Fab: CH1 with tags from Plasmid A and lambda CL from Plasmid E; also called Fab No. 22
With B2, the ECL signal in [8] turned out to be 1130 ECL signal; in [9], 1040 ECL signal; in [10] it was 1120 ECL signal; in [11], 29600 ECL signal; in [12] it was 1250 ECL signal; in [13], 1030 ECL signal. Also, the ECL signal in experiment [14] amounted to 1200 ECL signal; in experiment [15], 1180 ECL signal; in experiment [16], 1020 ECL signal.

B3: Fab VH6-1_IGHD3-3*01_IGHJ4*01 & V4-3_IGLJ4*01 (Fab, V domains shown)
VH: QVQLQQSGPGLVKPSQTLSLTCAISGDSVSSNSAAWNWIRQSPSRGLEWLGRTYYRSKWYNDYAVSVKSRITINPDTSKNQFSLQLNSVTPEDTAVYYCAREYYDFWSGYYTDYFDYWGQGTLVTVSS
VL: QPVLTQPTSLSASPGASARLTCTLRSGINLGSYRIFWYQQKPESPPRYLLSYYSDSSKHQGSGVPSRFSGSKDASSNAGILVISGLQSEDEADYYCMIWHSSASFVFGGGTQLIIL
notes: Tested as a Fab made in E. coli; also called IGHV6-1*01
Regarding B3, the ECL signal in experiment [17] turned out to be 508; in experiment [18], 454; in experiment [19] it was 351.
